Experimental data: patent publication US20050100554A1 (published 2005)

Experiments:
Y2H; INT ID 393 = target: the molecule itself; assay: Y2H; INT ID 393
Prey2313 = target: T1, Prey2313 (human, UniProt Q8WV44 21-380); assay: Y2H; INT ID 399
T1 construct: also called Homo sapiens, clone IMAGE: 3625550, mRNA, partial cds; cbe_2685998
T1 sequence: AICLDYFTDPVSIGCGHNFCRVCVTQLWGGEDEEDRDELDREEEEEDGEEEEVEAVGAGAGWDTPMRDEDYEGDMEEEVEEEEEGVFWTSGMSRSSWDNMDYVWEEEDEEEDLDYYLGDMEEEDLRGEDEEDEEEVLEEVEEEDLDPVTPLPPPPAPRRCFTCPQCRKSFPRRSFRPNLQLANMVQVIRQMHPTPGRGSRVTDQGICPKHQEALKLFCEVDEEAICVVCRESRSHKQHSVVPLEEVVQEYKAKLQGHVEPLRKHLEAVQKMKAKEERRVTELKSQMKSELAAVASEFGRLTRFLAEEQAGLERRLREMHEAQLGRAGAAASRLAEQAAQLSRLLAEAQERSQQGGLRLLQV

yeast Sec31p homolog = target: T2, yeast Sec31p homolog (human, UniProt O94979 1-1220); assay: Y2H; INT ID 408
T2 construct: also called KIAA0905; cbe_4383836
T2 sequence: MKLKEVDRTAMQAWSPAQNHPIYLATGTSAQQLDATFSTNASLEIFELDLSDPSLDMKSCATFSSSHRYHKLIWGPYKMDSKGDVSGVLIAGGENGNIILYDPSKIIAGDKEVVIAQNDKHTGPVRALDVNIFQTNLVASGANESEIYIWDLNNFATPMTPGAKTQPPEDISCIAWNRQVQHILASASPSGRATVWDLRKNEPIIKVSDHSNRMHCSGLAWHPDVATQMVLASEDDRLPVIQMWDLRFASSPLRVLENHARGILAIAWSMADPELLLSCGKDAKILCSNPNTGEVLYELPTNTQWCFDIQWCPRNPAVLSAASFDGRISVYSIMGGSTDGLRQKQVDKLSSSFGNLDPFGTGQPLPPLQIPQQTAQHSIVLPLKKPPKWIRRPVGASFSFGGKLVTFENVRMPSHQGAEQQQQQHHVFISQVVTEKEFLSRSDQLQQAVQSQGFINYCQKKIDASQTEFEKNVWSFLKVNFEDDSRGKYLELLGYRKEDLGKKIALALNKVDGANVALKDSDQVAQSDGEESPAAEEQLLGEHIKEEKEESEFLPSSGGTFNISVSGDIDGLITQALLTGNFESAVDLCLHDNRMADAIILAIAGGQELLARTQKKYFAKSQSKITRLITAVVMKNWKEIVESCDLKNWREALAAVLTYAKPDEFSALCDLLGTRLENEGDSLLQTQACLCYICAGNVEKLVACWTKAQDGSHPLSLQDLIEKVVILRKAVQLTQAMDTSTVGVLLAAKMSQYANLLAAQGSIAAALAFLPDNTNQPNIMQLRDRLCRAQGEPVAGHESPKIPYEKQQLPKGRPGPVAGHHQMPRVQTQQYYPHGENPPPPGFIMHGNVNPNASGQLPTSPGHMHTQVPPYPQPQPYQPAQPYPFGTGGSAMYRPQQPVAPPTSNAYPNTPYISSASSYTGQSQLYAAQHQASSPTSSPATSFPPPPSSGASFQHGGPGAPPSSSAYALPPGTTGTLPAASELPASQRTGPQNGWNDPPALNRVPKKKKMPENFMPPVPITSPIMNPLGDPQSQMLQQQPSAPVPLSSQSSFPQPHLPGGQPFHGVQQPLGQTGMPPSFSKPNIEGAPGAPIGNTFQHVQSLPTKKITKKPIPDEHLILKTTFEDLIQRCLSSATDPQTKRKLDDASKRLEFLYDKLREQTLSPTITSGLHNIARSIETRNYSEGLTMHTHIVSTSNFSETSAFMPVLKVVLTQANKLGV

[1] = target: T3, tumor necrosis factor, alpha-induced protein 1 (endothelial) (human, UniProt Q13829 1-316); assay: Y2H; INT ID 402
T3 construct: also called TNFAIP1; cbe_3705944
T3 sequence: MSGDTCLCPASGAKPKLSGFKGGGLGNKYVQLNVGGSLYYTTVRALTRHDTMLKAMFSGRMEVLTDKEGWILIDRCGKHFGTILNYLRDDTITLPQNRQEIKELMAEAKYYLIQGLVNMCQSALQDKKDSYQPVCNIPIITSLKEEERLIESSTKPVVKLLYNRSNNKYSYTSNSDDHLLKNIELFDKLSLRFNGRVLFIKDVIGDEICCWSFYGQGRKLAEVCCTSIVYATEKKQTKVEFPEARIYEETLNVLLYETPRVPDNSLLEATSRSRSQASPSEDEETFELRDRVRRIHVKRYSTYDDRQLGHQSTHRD

CKM = target: T4, CKM (human, UniProt P06732 1-381); assay: Y2H; INT ID 403
T4 construct: also called MARK4
T4 sequence (P06732 whole entry): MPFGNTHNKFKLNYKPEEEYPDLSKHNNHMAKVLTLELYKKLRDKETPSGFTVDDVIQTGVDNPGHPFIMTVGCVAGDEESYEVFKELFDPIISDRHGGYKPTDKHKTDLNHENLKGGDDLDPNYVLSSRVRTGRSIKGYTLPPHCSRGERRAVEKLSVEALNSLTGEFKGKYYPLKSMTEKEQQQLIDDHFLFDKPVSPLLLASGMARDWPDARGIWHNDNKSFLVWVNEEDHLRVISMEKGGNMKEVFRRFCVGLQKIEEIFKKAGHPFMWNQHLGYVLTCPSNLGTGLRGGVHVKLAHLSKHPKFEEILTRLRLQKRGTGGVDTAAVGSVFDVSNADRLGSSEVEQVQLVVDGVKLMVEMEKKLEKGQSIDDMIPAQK

[2] = target: T5, hypothetical protein FLJ22729 (human, UniProt Q96QE5 203-360); assay: Y2H; INT ID 398
T5 construct: also called cbe_1807361
T5 sequence: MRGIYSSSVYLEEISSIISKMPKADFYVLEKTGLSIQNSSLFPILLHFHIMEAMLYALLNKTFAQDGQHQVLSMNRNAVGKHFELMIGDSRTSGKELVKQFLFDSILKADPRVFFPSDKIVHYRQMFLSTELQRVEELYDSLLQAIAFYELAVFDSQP

[3] = target: T6, tripartite motif-containing 29 (human, UniProt Q14134 1-588); assay: Y2H; INT ID 404
T6 construct: also called TRIM29; cbe_3833533
T6 sequence: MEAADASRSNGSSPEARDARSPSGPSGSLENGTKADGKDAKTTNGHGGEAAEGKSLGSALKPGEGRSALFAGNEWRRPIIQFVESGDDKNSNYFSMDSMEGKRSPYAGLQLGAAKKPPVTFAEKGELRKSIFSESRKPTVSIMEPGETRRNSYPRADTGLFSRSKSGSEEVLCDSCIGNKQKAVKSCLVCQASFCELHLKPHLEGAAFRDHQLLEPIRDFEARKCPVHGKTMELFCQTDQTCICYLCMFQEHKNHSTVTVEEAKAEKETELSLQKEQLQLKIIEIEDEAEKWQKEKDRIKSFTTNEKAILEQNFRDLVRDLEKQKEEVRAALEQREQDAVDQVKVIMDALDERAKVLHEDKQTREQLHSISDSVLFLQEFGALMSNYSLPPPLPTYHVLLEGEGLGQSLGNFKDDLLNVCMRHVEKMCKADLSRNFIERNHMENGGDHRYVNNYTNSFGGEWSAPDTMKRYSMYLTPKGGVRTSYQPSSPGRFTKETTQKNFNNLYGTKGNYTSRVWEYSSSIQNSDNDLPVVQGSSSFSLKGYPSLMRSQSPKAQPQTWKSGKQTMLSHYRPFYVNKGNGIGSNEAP

Measured: binding result

B1: Human Papillomavirus 1a E1-E4 (other)
chain: MADNKAPQGLLGLLQYTPTTQPYPRVTPPSNRRPSTTPNSQDRGRPRRSDKDSRKHLYADGLTDGEDPEVPEVEDEEKENQRPLGHPDLSLLRETLEVYTQRLKRDILQDLDDFCRKLGIHPWSV
notes: also called HPV 1a E1-E4; cbe_251740
binds: Y2H; INT ID 393 | Prey2313 | yeast Sec31p homolog | [1] | CKM | [2] | [3]
